From patent US20250002593A1 (INMAGENE PTE, published 2025)
Like-named read-outs stand apart in the source and are kept apart here.

Key:
[1] = biological target: T1, mouse IL-36R (R&D, Cat #2354-RP) (mouse, UniProt Q9ERS7 22-338, limits assumed); assay: BLI, antibody on Protein A sensor, recombinant mouse IL-36R as analyte
T1 construct: Bought; also called recombinant mouse IL-36R protein
T1 sequence (looked up): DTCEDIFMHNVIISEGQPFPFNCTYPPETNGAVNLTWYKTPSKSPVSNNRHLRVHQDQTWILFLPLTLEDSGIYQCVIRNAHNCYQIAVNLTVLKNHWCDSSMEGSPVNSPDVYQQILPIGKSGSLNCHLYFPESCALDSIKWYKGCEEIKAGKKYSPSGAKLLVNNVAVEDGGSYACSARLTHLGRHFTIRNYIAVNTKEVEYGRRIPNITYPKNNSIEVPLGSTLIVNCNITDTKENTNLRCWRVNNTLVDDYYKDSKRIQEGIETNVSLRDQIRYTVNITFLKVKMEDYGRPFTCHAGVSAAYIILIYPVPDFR

membrane hIL-36R [2] = biological target: T2, membrane hIL-36R (human, UniProt Q9HB29 20-575); assay: cell-based or functional assay
T2 sequence: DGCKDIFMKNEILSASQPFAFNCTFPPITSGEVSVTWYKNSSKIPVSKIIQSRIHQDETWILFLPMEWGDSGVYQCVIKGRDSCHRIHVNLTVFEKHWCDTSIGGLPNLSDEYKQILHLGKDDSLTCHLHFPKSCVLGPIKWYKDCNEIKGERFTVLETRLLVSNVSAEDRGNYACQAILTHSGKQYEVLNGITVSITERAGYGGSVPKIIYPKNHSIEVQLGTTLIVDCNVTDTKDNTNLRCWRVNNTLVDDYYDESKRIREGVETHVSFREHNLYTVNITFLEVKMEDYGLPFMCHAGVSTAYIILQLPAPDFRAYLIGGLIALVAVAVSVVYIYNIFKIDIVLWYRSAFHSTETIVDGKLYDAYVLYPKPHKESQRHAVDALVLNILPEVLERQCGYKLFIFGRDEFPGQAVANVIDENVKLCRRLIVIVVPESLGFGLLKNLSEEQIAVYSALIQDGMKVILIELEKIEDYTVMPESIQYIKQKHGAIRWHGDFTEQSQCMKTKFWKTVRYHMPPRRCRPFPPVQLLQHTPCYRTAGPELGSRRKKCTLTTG

membrane hIL-36R [3] = biological target: T2, membrane hIL-36R; assay: cell-based or functional assay; remark: listed apart in the source
membrane hIL-36R [4] = biological target: T2, membrane hIL-36R; assay: cell-based or functional assay; remark: listed apart in the source
[5] = biological target: T3, Recombinant hIL-36R protein (Acrobio, Cat #IL2-H52H6) (human, UniProt Q9HB29 20-335); assay: SPR (Biacore T200, 25 C), antibody captured by Fc, hIL-36R analyte
T3 construct: Bought soluble protein; also called recombinant human IL-36R protein
T3 sequence: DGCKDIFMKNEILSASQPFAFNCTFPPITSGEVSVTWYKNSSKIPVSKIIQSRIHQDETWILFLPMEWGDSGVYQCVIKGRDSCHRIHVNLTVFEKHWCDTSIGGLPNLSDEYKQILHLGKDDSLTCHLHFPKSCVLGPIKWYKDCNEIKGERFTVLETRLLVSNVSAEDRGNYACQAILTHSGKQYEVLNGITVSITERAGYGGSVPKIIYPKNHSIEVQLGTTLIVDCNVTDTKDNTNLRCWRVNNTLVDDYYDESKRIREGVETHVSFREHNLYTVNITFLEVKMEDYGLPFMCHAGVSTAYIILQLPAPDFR

membrane hIL-36R [6] = biological target: T2, membrane hIL-36R; assay: cell-based or functional assay; remark: listed apart in the source
membrane hIL-36R [7] = biological target: T2, membrane hIL-36R; assay: cell-based or functional assay; remark: listed apart in the source
membrane hIL-36R [8] = biological target: T2, membrane hIL-36R; assay: cell-based or functional assay; remark: listed apart in the source
membrane hIL-36R [9] = biological target: T2, membrane hIL-36R; assay: cell-based or functional assay; remark: listed apart in the source
membrane hIL-36R [10] = biological target: T2, membrane hIL-36R; assay: cell-based or functional assay; remark: listed apart in the source
[11] = biological target: T4, Recombinant hIL1R1 protein (human, UniProt P14778 18-332, limits assumed); assay: ELISA on coated recombinant hIL1R1 protein, detection with HRP anti-hIgG
T4 sequence (looked up): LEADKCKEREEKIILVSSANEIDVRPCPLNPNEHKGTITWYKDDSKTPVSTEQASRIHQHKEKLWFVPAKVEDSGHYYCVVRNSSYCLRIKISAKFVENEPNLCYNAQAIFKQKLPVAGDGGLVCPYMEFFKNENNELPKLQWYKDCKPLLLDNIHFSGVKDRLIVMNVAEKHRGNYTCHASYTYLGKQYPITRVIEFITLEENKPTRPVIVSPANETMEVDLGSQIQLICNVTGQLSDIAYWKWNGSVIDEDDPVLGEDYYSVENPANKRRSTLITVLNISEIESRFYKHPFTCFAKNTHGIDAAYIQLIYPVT

membrane hIL-36R [12] = biological target: T2, membrane hIL-36R; assay: flow cytometry on HEK293 cells transfected with pcDNA3.1-hIL36R, FITC anti-hIgG, MFI (median); unit taken from the x axis
recombinant hIL-36R-his = biological target: T5, recombinant hIL-36R-his (human, UniProt Q9HB29 20-337); assay: ELISA on coated recombinant hIL36R protein (1 µg/ml), detection with HRP anti-hIgG; unit taken from the x axis Ab(µg/mL)
T5 construct: Residues 1-337 (extracellular domain) are stated for the IL-36R-his used as immunogen; The range includes the signal peptide; no cleavage site is stated; also called recombinant hIL36R protein; recombinant human IL-36R-his protein; not shown: His tag
T5 sequence: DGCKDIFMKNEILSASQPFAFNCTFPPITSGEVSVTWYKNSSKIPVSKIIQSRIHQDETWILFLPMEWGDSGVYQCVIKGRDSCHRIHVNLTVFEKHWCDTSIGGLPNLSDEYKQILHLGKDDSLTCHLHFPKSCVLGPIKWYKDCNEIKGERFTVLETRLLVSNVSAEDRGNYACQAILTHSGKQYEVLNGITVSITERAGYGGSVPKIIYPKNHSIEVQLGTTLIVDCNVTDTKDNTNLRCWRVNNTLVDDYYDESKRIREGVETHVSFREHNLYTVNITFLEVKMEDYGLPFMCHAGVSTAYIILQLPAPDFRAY

[13] = biological target: T6, Recombinant cynomolgus IL36R protein (Acrobio, Cat #IL2-C52H5) (cynomolgus, UniProt A0A2K5WSK9 20-335); assay: BLI, antibody on Protein A sensor, recombinant cynomolgus IL36R as analyte
T6 construct: Bought; also called cyno IL-36R
T6 sequence: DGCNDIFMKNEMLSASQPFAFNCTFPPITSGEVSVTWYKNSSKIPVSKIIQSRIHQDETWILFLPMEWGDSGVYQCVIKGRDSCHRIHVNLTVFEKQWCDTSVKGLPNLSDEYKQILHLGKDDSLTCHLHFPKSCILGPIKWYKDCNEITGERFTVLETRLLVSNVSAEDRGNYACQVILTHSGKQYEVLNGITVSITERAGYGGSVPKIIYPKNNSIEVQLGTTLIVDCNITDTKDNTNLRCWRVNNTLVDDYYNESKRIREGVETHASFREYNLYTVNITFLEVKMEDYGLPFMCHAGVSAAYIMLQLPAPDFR

[14] = biological target: T3, Recombinant hIL-36R protein (Acrobio, …); assay: BLI as in Example 2, antibody on Protein A sensor, hIL-36R analyte

B1: BI655130 (antibody, V domains shown)
VH: QVQLVQSGAEVKKPGASVKVSCKASGYSFTSSWIHWVKQAPGQGLEWMGEINPGNVRTNYNENFRNKVTMTVDTSISTAYMELSRLRSDDTAVYYCTVVFYGEPYFPYWGQGTLVTVSS
VL: QIVLTQSPGTLSLSPGERATMTCTASSSVSSSYFHWYQQKPGQAPRLWIYRTSRLASGVPDRFSGSGSGTDFTLTISRLEPEDAATYYCHQFHRSPLTFGAGTKLEIK
notes: also called benchmark antibody
- binding result [1]: no binding (tested: up to 100 nM IL-36R)
- IC50, inhibition of IL-36α induced IL-8 release in A431 cells (IL-8 ELISA, OD450) [panel IL-36α] (membrane hIL-36R [2]): 0.0955 µg/mL
- IC50, inhibition of IL-36β induced IL-8 release in A431 cells (IL-8 ELISA, OD450) [panel IL-36β] (membrane hIL-36R [2]): 0.0532 µg/mL
- IC50, inhibition of IL-36γ induced IL-8 release in A431 cells (IL-8 ELISA, OD450) [panel IL-36γ] (membrane hIL-36R [2]): 6.5 ng/mL
- IC50, inhibition of IL-36β induced IL-6 release in primary human epithelial keratinocytes (HEK cells) [panel IL-6] (membrane hIL-36R [3]): 0.0229 µg/mL
- IC50, inhibition of IL-36β induced IL-8 release in primary human epithelial keratinocytes (HEK cells) [panel IL-8] (membrane hIL-36R [3]): 0.0293 µg/mL
- IC50, inhibition of IL-36β induced TNF-α release in primary human epithelial keratinocytes (HEK cells) [panel TNF-α] (membrane hIL-36R [3]): 0.0107 µg/mL
- IC50, inhibition of IL-36α induced IL-8 release in primary human dermal fibroblast (HDF) cells (IL-8 ELISA, OD450) (membrane hIL-36R [4]): 3.61 ng/mL
- Kd [5]: 0.935 nM
- koff [5]: 3.66e-05 s⁻¹
- kon [5]: 39200 M⁻¹ s⁻¹
- IC50, IL-36R reporter assay: inhibition of ligand induced luminescence in Jurkat-IL36R-IL1Racp-NFkB-luc cells (printed BI 655130) (membrane hIL-36R [6]): 0.0217 µg/mL
- IC50, IL-36R reporter assay: inhibition of IL-36α induced luminescence in Jurkat-IL36R-IL1Racp-NFkB-luc cells (membrane hIL-36R [7]): 0.057 nM
- IC50, inhibition of IL-36γ induced IL-6 release in primary human epithelial keratinocytes (HEK cells) [panel IL-6] (membrane hIL-36R [8]): 0.0138 µg/mL
- IC50, inhibition of IL-36γ induced IL-8 release in primary human epithelial keratinocytes (HEK cells) [panel IL-8] (membrane hIL-36R [8]): 7.7 ng/mL
- IC50, inhibition of IL-36γ induced TNF-α release in primary human epithelial keratinocytes (HEK cells) [panel TNF-α] (membrane hIL-36R [8]): 5.75 ng/mL
- IC50, inhibition of IL-36α induced IL-6 release in primary human epithelial keratinocytes (HEK cells) [panel IL-6] (membrane hIL-36R [9]): 0.0982 µg/mL
- IC50, inhibition of IL-36α induced IL-8 release in primary human epithelial keratinocytes (HEK cells) [panel IL-8] (membrane hIL-36R [9]): 0.0684 µg/mL
- IC50, inhibition of IL-36α induced TNF-α release in primary human epithelial keratinocytes (HEK cells) [panel TNF-α] (membrane hIL-36R [9]): 0.027 µg/mL
- IC50, IL-36R reporter assay: inhibition of ligand induced luminescence in Jurkat-IL36R-IL1Racp-NFkB-luc cells (membrane hIL-36R [10]): 0.0133 µg/mL
- binding result [11]: no binding (tested: 1 µg/mL)
- EC50 (membrane hIL-36R [12]): 0.0875 µg/mL
- EC50 (recombinant hIL-36R-his): 0.0111 µg/mL

B2: 5F7-hu-3 (antibody, V domains shown)
VH: QVQLVESGGGLVKPGGSLRLSCAASGFAFTDYYMNWIRQAPGKGLEWVALIRNKAAGYTIYYSDSVKGRFTISRDNAKSSLYLQMNSLRAEDTAVYYCVRDMTIYDGYYVDYALDYWGQGTLVTVSS
VL: DIVMTQSPSSVSASVGDRVTITCRASQNINIWLSWYQQKPGKAPKLFIYKASNLHTGVPSRFSGSGSGTDFTLTISSLQPEDFATYYCLQSQSYPLTFGQGTKLEIK
notes: Humanized 5F7; also called humanized 5F7
- binding result [1]: no binding (tested: up to 100 nM IL-36R)
- binding result [13]: no binding (tested: up to 100 nM IL-36R)
- Kd [14]: 4.55 nM
- koff [14]: 0.000194 s⁻¹
- kon [14]: 42700 M⁻¹ s⁻¹
- IC50, IL-36R reporter assay: inhibition of ligand induced luminescence in Jurkat-IL36R-IL1Racp-NFkB-luc cells (membrane hIL-36R [6]): 0.0637 µg/mL
